The source of these data is patent US20170247475A1 (Boehringer Ingelheim, published 2017).

Experiment [1] addresses T1, mAng2.
T1 construct: also called mouse Ang2
T1 chain: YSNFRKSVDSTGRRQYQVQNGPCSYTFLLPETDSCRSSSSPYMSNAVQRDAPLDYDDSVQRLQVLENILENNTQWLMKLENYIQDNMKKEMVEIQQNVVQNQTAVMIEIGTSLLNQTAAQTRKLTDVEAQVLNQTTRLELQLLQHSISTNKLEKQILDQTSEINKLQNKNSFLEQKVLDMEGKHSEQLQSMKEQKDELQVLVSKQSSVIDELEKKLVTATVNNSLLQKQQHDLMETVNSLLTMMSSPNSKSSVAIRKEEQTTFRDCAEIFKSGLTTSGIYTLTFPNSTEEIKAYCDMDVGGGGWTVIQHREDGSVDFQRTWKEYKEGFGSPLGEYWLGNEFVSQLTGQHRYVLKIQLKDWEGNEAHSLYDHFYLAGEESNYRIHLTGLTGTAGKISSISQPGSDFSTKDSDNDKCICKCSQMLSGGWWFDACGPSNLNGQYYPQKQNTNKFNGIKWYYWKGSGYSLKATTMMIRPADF
The experiment can be described thus: competition ELISA, blocking of mAng2 binding to mTie2. Background: An ELISA detects its analyte on a solid surface through an enzyme-linked reagent.

For experiment [2], the target named is T2, hAng2.
T2 construct: also called human Ang2
T2 chain: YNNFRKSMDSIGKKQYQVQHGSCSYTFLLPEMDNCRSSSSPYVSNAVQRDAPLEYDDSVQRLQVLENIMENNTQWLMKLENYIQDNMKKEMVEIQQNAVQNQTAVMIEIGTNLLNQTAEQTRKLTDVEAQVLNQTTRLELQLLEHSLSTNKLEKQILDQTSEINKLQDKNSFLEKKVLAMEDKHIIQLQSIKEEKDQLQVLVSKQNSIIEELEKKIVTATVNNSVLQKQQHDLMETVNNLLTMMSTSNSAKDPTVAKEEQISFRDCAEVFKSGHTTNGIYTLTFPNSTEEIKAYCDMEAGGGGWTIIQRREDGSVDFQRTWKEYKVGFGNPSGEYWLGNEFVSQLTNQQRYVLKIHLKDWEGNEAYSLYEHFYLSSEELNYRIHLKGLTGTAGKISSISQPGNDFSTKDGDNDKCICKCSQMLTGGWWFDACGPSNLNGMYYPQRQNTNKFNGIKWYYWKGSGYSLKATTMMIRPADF
The experiment can be described thus: competition ELISA, blocking of hAng2 binding to hTie2.

For experiment [3], the target named is T3, recombinant human VEGF165 (human, UniProt P15692-4 27-191).
T3 construct: also called hVEGF165; rhVEGF165
The experiment can be described thus: hVEGF165/hVEGFR1-Fc competition ELISA.

In experiment [4] the target is T3, recombinant human VEGF165. The experiment can be described thus: kd1; SPR Biacore T100, hVEGF165 on chip, Two State Reaction model. The procedure: (§1) Samples are injected for 2 min and allowed to dissociate up to 20 min at a flow rate of 45 μI/min. In between sample injections, the chip surface is regenerated with 100 mM HCl. HBS-EP+(Hepes buffer pH7.4+EDTA) is used as running buffer. Binding curves are fitted using a Two State Reaction model by Biacore T100 Evaluation Software v2.0.1.
(§2) ^{(a)}Heterogeneous binding curve resulting in no 1:1 fit, curves are fitted using a Two State Reaction model by Biacore T100 Evaluation Software v2.0.1
A general note: SPR reads the build-up and loss of mass on a sensor chip optically.

Experiment [5] addresses T4, recombinant mouse VEGF164 (mouse, UniProt Q00731-2 27-190).
T4 construct: biotinylated in the mVEGFR2 AlphaScreen; also called rmVEGF164; mVEGF164
T4 sequence (looked up): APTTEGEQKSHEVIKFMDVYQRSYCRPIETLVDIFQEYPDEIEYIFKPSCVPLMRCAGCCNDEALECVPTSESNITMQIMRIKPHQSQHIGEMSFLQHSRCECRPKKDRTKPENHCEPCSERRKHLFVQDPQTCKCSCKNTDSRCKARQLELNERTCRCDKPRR
The experiment in a line: binding ELISA, coated rmVEGF164. The procedure:
Cross-reactivity to mouse VEGF164 is determined using a binding ELISA. […] Wells are blocked with a casein solution (1% in PBS). […] A mouse VEGF164 reactive mAb is included as positive control.

Experiment [6] concerns the target T3, recombinant human VEGF165. The experiment can be described thus: SPR Biacore T100, hVEGF165 on chip, Two State Reaction model. The procedure:
as §1, §2

The target of experiment [7] is T5, human VEGF-D (human, UniProt O43915 93-201).
T5 construct: also called hVEGF-D
T5 sequence (looked up): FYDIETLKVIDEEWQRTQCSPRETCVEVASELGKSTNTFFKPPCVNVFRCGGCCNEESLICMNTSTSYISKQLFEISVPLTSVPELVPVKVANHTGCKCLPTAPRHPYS
The experiment can be described thus: solid phase binding ELISA. How it is done: (§3) Binding to VEGFB, VEGFC, VEGFD and PIGF is assessed via a solid phase binding ELISA. In brief, VEGFB, VEGFC, VEGFD and PIGF (R&D Systems, Minneapolis, Minn., USA) are coated overnight at 4° C. at 1 μg/mL in a 96-well MaxiSorp plate (Nunc, Wiesbaden, Germany). Wells are blocked with a casein solution (1% in PBS). […] As positive controls serial dilutions of the appropriate receptors are taken along and detected with horseradish peroxidase (HRP)-conjugated goat anti-human IgG, Fc specific antibody (Jackson Immuno Research Laboratories Inc., West Grove, Pa., USA) and a subsequent enzymatic reaction in the presence of the substrate TMB (3,3′,5,5′-tetramentylbenzidine) (Pierce, Rockford, Ill., USA).

In experiment [8] the target is T6, human PIGF (human, UniProt P49763-2 21-149, limits assumed).
T6 construct: also called hPIGF; PLGF
T6 sequence (looked up): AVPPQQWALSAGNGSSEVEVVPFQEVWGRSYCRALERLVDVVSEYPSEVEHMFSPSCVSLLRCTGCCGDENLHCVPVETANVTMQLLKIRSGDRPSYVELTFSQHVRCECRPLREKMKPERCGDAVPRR
The experiment in a line: solid phase binding ELISA. The procedure:
as §3

Experiment [9] concerns the target T7, human VEGF-B (human, UniProt P49765-2 22-188, limits assumed).
T7 construct: also called hVEGF-B
T7 sequence (looked up): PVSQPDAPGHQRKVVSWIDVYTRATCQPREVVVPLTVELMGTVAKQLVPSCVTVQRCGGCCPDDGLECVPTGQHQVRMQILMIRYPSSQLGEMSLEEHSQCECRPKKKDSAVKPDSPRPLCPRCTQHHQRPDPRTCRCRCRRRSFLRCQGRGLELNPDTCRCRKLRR
The experiment in a line: solid phase binding ELISA. How it is done:
as §3

For experiment [10], the target named is T8, human VEGF-C (human, UniProt P49767 103-227).
T8 construct: also called hVEGF-C
T8 sequence (looked up): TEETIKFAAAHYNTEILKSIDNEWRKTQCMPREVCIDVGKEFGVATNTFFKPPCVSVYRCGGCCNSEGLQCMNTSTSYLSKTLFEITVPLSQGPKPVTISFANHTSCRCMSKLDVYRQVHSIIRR
The experiment can be described thus: solid phase binding ELISA. The procedure: as §3

The target in experiment [11] is T3, recombinant human VEGF165. The experiment in a line: ka1; SPR Biacore T100, hVEGF165 on chip, Two State Reaction model. How it is done:
as §1, §2

Experiment [12] has as its target T3, recombinant human VEGF165. The experiment can be described thus: hVEGF165/hVEGFR2-Fc competition ELISA.
Experiment [13] addresses VEGF. The experiment can be described thus: cell-based or functional assay.
Experiment [14] deals with T3, recombinant human VEGF165. The experiment can be described thus: Biacore, periplasmic extract on hVEGF165 chip, two phase decay fit. The procedure:
(§4) Dissociation rates of inhibitory VHHs are analyzed on Biacore (Biacore T100 instrument, GE Healthcare). HBS-EP+ buffer is used as running buffer and experiments are performed at 25° C. […] After immobilization, surfaces are deactivated with 10 min injection of 1M ethanolamine pH8.5. A reference surface is activated and deactivated with respectively EDC/NHS and ethanolamine. Periplasmic extracts of VHHs are injected at a 10-fold dilution in running buffer for 2 min at 45 μl/min and allowed to dissociate for 10 or 15 min. Between different samples, the surfaces are regenerated with regeneration buffer. Data are double referenced by subtraction of the curves on the reference channel and of a blank running buffer injection. […] is evaluated by fitting a two phase decay model in the Biacore T100 Evaluation software v2.0.1.
Target sequence in this assay (P15692 other isoform, or with tags, fused parts or gaps limits assumed): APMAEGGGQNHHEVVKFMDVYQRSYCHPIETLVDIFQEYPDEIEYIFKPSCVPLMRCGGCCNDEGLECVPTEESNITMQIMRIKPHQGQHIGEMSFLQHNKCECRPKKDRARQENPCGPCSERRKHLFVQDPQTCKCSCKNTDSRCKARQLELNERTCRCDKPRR

In experiment [15] the target is T3, recombinant human VEGF165. The experiment in a line: hVEGF165/hVEGFR2-Fc competition AlphaScreen. How it is done: (§5) Finally, streptavidin donor beads (20 μg/ml) are added and after 1 hour of incubation in the dark, fluorescence is measured on the Envision microplate reader.
For orientation: Bead proximity is the source of the signal in Alpha formats.

Experiment [16] concerns the target T3, recombinant human VEGF165. The experiment can be described thus: Biacore, periplasmic extract on hVEGF165 chip. How it is done: as §4
Target sequence in this assay (P15692 other isoform, or with tags, fused parts or gaps limits assumed): as above
In experiment [17] the target is T3, recombinant human VEGF165. The experiment can be described thus: binding ELISA, coated rhVEGF165.
For experiment [18], the target named is T9, recombinant human VEGF121 (human, UniProt P15692-9 27-147).
T9 construct: also called rhVEGF121; hVEGF121
T9 sequence (looked up): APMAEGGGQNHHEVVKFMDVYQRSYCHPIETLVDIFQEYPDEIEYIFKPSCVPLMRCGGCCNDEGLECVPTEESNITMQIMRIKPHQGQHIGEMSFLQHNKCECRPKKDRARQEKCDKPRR
The experiment can be described thus: binding ELISA, coated rhVEGF121. How it is done:
Binding to recombinant human VEGF121 is assessed via a solid phase binding ELISA. Briefly, recombinant human VEGF121 (R&D Systems, Minneapolis, Minn., USA) is coated overnight at 4° C. at 1 μg/mL in a 96-well MaxiSorp plate (Nunc, Wiesbaden, Germany). Wells are blocked with a casein solution (1% in PBS).

Experiment [19] deals with T3, recombinant human VEGF165. The experiment in a line: hVEGF165/hVEGFR1-Fc competition AlphaScreen. The procedure:
as §5

Residue numbers refer to the chain shown, from its start.

B1: ANGBII00005 (VHH)
bivalent VHH: EVQLVESGGGLVQAGGSLRLSCAASGFTLDDYAIGWFRQAPGKEREGVSSIRDNDGSTYYADSVKGRFTISSDNDKNTVYLQMNSLKPEDTAVYYCAAVPAGRLRFGEQWYPLYEYDAWGQGTLVTVSSGGGGSGGGGSGGGGSGGGGSGGGGSGGGGSGGGGSGGGGSEVQLVESGGGLVQAGGSLRLSCAASGFTLDDYAIGWFRQAPGKEREGVSSIRDNDGSTYYADSVKGRFTISSDNDKNTVYLQMNSLKPEDTAVYYCAAVPAGRLRFGEQWYPLYEYDAWGQGTLVTVSS
notes: homodimeric anti-Ang2 VHH; also called 00027-40gs-00027
As for B1, the “IC50 (read off the curve)” value is around 0.03 nM in [1] and around 0.01 nM in experiment [2].

B2: VEGFBII23A06 (VHH)
VHH: EVQLVESGGGLVQPGDSLKLSCAFSGRTFSSYSMGWFRQAQGKEREFVVAISSGGFIYDAVSLEGRFTISRDNTKNTVYLQTPSLKPEDTAVYYCAASRAYGSSRLRLADTYDYWGQGTQVTVSS
notes: also called 23A6; VEGFBII23A6
One may read the % inhibition as how much of the control response was suppressed. Broadly, the IC50 is the concentration at which inhibition is half-maximal. As a reminder, the koff is a measure of how fast the partners let go of each other. One may read the Kd as the free concentration of one partner at which half of the binding sites on the other are occupied at equilibrium, for simple one-to-one binding. Usually kon stands for the second-order rate constant of association. The EC50 is the concentration at which the effect is half-maximal. B2: the “% inhibition” value in experiment [3] worked out at 55%; in [12], 100%; in experiment [15] it was 100%; in [19] it was 46%. For the same molecule, the half-inhibitory concentration (IC50) was 0.9 nM in experiment [3], 3 nM in experiment [12], 0.25 nM in experiment [15] and 0.4 nM in experiment [19]. Further, the off-rate constant (koff) in experiment [4] is 0.057 s⁻¹. In addition, the binding result in [5], in [7], in experiment [8], in experiment [9] and in [10] was “no binding (tested: 500 nM-32 pM)” throughout. Moreover, in experiment [6], the Kd stood at 0.7 nM. Also, the kd2 in experiment [6] worked out at 0.0001 s⁻¹. In addition, the association rate constant (kon) in experiment [11] is 420000 M⁻¹ s⁻¹. The “% inhibition, VEGF HUVEC proliferation assay” value in experiment [13] came out at 73%. Further, the “IC50 (nM), VEGF HUVEC proliferation assay” value in [13] is 4.29 nM. In [14], the “% fast” value worked out at 13%. For the same molecule, the “Binding level (RU)” value in [16] was 547 RU. In addition, the EC50 stood at 0.531 nM in [17] and 0.928 nM in [18].

B3: VEGFBII24C04 (VHH)
VHH: B2 VHH with A23V, F24A, F29S, F56Y, A60S, E64Q
notes: also called VEGFBII24C4
For B3, the “% inhibition” value in experiment [3] stood at 71%; in [12], 100%; in [15], 100%; in experiment [19], 53%. For the same molecule, the concentration for half-maximal inhibition (IC50) is 0.8 nM in experiment [3], 2.5 nM in [12], 0.25 nM in [15] and 0.2 nM in experiment [19]. The off-rate (koff) in [4] came out at 0.026 s⁻¹. The binding result in [5], in experiment [7], in experiment [8], in experiment [9] and in [10] was “no binding (tested: 500 nM-32 pM)” each time. Moreover, the equilibrium dissociation constant (Kd) in [6] was 0.4 nM. Besides, in experiment [6], the kd2 was determined as 9.6e-05 s⁻¹. In experiment [11], the kon came out at 320000 M⁻¹ s⁻¹. Besides, the “% inhibition, VEGF HUVEC proliferation assay” value in experiment [13] was determined as 79%. Besides, the “IC50 (nM), VEGF HUVEC proliferation assay” value in experiment [13] was found to be 3.8 nM. Besides, the “% fast” value in experiment [14] was 17%. Moreover, the “Binding level (RU)” value in experiment [16] was 456 RU. The EC50 turned out to be 0.453 nM in [17] and 0.792 nM in experiment [18].
